Assay results: publication PMC7221550, “Membrane Phospholipids and Polyphosphates as Cofactors and Binding Molecules of SERPINA12 (vaspin)” (Molecules, 2020)

Target: Recombinant human kallikrein 7 (KLK7) (human, UniProt P49862 30-253)
Test: cell-based or functional assay

Chain of Recombinant human kallikrein 7 (KLK7) (P49862 30-253): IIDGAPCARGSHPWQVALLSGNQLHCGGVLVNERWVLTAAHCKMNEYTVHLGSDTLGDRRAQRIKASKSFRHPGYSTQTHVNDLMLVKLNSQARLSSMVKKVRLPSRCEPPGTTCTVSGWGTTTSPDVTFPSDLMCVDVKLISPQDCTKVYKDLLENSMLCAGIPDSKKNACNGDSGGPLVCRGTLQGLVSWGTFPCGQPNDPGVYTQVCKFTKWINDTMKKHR

- second-order rate constant of KLK7 inhibition by vaspin under pseudo-first-order conditions, x-fold over control, with polyP45 (polyP/serpin ratio of 10:1): 5 fold
- second-order rate constant of KLK7 inhibition by vaspin under pseudo-first-order conditions, x-fold over control, with unfractionated heparin (ligand/serpin ratio of 10): 5 fold
B1: Recombinant human vaspin wild type (visceral adipose tissue derived serine protease inhibitor, SERPINA12) (natural protein)
chain: KPSFSPRNYKALSEVQGWKQRMAAKELARQNMDLGFKLLKKLAFYNPGRNIFLSPLSISTAFSMLCLGAQDSTLDEIKQGFNFRKMPEKDLHEGFHYIIHELTQKTQDLKLSIGNTLFIDQRLQPQRKFLEDAKNFYSAETILTNFQNLEMAQKQINDFISQKTHGKINNLIENIDPGTVMLLANYIFFRARWKHEFDPNVTKEEDFFLEKNSSVKVPMMFRSGIYQVGYDDKLSCTILEIPYQKNITAIFILPDEGKLKHLEKGLQVDTFSRWKTLLSRRVVDVSVPRLHMTGTFDLKKTLSYIGVSKIFEEHGDLTKIAPHRSLKVGEAVHKAELKMDERGTEGAAGTGAQTLPMETPLVVKIDKPYLLLIYSEKIPSVLFLGKIVNPIGK
